# Laboratory results: the supplement of paper PMC9112550, “Optimization of the antimicrobial peptide Bac7 by deep mutational scanning” (BMC Biology, 2022)
# Test system: Escherichia coli TOP10
# Test: shrunken log2 fold change of peptide-encoding DNA abundance (4.5 h post-induction vs induction); higher = less antimicrobial activity (less host growth inhibition)
# Details: time post-induction: 4.5 h; library: site-saturation at positions 5, 18, 19, 20
# 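Also: peptides expressed intracellularly from a pBAD plasmid library in pooled LB shake-flask culture, induced with 0.3% L-arabinose, DNA abundance read by NGS, three biological replicates, DESeq2 with apeglm shrinkage.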
row,Sequence,shrunken log2 fold change
1,RRIRQRPPRLPRPRPRPTECPRP,0.0119
2,RRIRMRPPRLPRPRPRPDWTPRP,0.0113
3,RRIRFRPPRLPRPRPRPDMEPRP,-0.16
4,RRIRCRPPRLPRPRPRPDSWPRP,-0.115
5,RRIRLRPPRLPRPRPRPAHPPRP,0.522
6,RRIRTRPPRLPRPRPRPNNFPRP,-0.381
7,RRIRARPPRLPRPRPRPWVCPRP,-0.136
8,RRIRGRPPRLPRPRPRPYYNPRP,-0.48
9,RRIRKRPPRLPRPRPRPLWWPRP,0.477
10,RRIRRRPPRLPRPRPRPEFFPRP,0.216
11,RRIRVRPPRLPRPRPRPDFWPRP,0.239
12,RRIRRRPPRLPRPRPRPPAHPRP,0.728
13,RRIRSRPPRLPRPRPRPRYPPRP,-0.036
14,RRIRDRPPRLPRPRPRPFMLPRP,-0.342
15,RRIRVRPPRLPRPRPRPLPDPRP,-0.0431
16,RRIRIRPPRLPRPRPRPIKGPRP,-0.068
17,RRIRERPPRLPRPRPRPNAAPRP,0.163
18,RRIRERPPRLPRPRPRPCGHPRP,0.0222
19,RRIRGRPPRLPRPRPRPVFDPRP,0.39
20,RRIRRRPPRLPRPRPRPLIAPRP,0.294
21,RRIRWRPPRLPRPRPRPTELPRP,0.135
22,RRIRRRPPRLPRPRPRPLMVPRP,-0.161

row,Sequence,shrunken log2 fold change
1,RRIRHRPPRLPRPRPRPSLKPRP,-0.488
2,RRIRQRPPRLPRPRPRPPCQPRP,0.0396
3,RRIRQRPPRLPRPRPRPSAGPRP,0.0717
4,RRIRHRPPRLPRPRPRPGVLPRP,0.0408
5,RRIRCRPPRLPRPRPRPGCCPRP,0.137
6,RRIRLRPPRLPRPRPRPIGRPRP,0.0169
7,RRIRQRPPRLPRPRPRPGTLPRP,-0.0134
8,RRIRYRPPRLPRPRPRPYRPPRP,-0.0134
9,RRIRRRPPRLPRPRPRPACWPRP,0.626
10,RRIRIRPPRLPRPRPRPDTWPRP,-0.239
11,RRIRERPPRLPRPRPRPSWKPRP,-0.345
12,RRIRLRPPRLPRPRPRPYKRPRP,-0.0165
13,RRIRYRPPRLPRPRPRPTHPPRP,-0.311
14,RRIRYRPPRLPRPRPRPKDQPRP,-0.48
15,RRIRSRPPRLPRPRPRPQNIPRP,-0.657
16,RRIRGRPPRLPRPRPRPRWKPRP,0.0802
17,RRIRERPPRLPRPRPRPCGWPRP,0.154
18,RRIRGRPPRLPRPRPRPITSPRP,0.0724
19,RRIRCRPPRLPRPRPRPRDFPRP,0.0317
20,RRIRFRPPRLPRPRPRPMMWPRP,-0.011
21,RRIRARPPRLPRPRPRPLHRPRP,0.281
22,RRIRTRPPRLPRPRPRPLIGPRP,-0.413

row,Sequence,shrunken log2 fold change
1,RRIRMRPPRLPRPRPRPQCVPRP,0.039
2,RRIRHRPPRLPRPRPRPYRVPRP,-0.0718
3,RRIRIRPPRLPRPRPRPRKNPRP,-0.133
4,RRIRWRPPRLPRPRPRPADEPRP,0.033
5,RRIRGRPPRLPRPRPRPGHEPRP,0.202
6,RRIRNRPPRLPRPRPRPPAHPRP,0.626
7,RRIRARPPRLPRPRPRPKHHPRP,-0.00948
8,RRIRQRPPRLPRPRPRPCDYPRP,0.07
9,RRIRSRPPRLPRPRPRPCQDPRP,-0.0622
10,RRIRTRPPRLPRPRPRPGHWPRP,0.0708
11,RRIRWRPPRLPRPRPRPANSPRP,0.0236
12,RRIRKRPPRLPRPRPRPICRPRP,0.0069
13,RRIRARPPRLPRPRPRPKMCPRP,-0.0542
14,RRIRVRPPRLPRPRPRPGDNPRP,0.174
15,RRIRGRPPRLPRPRPRPQGFPRP,0.441
16,RRIRMRPPRLPRPRPRPYPMPRP,-0.126
17,RRIRGRPPRLPRPRPRPKILPRP,0.229
18,RRIRQRPPRLPRPRPRPMMRPRP,0.109
19,RRIRFRPPRLPRPRPRPSTDPRP,-0.667
20,RRIRVRPPRLPRPRPRPTQRPRP,0.565
21,RRIRPRPPRLPRPRPRPSWVPRP,0.0466
22,RRIRPRPPRLPRPRPRPCCFPRP,-0.133

row,Sequence,shrunken log2 fold change
1,RRIRPRPPRLPRPRPRPIWPPRP,0.302
2,RRIRTRPPRLPRPRPRPYMTPRP,-0.375
3,RRIRCRPPRLPRPRPRPVWHPRP,0.127
4,RRIRCRPPRLPRPRPRPANIPRP,-0.443
5,RRIRARPPRLPRPRPRPTKMPRP,0.319
6,RRIRMRPPRLPRPRPRPEGRPRP,3.21
7,RRIRERPPRLPRPRPRPRCRPRP,0.113
8,RRIRTRPPRLPRPRPRPPMAPRP,0.176
9,RRIRMRPPRLPRPRPRPRSSPRP,0.923
10,RRIRGRPPRLPRPRPRPNQQPRP,0.0317
11,RRIRGRPPRLPRPRPRPHYAPRP,-0.0664
12,RRIRKRPPRLPRPRPRPYHLPRP,-0.0564
13,RRIRKRPPRLPRPRPRPALGPRP,0.0812
14,RRIRIRPPRLPRPRPRPCSCPRP,-0.446
15,RRIRVRPPRLPRPRPRPVIEPRP,0.161
16,RRIRQRPPRLPRPRPRPLDEPRP,0.0698
17,RRIRARPPRLPRPRPRPLWVPRP,0.959
18,RRIRVRPPRLPRPRPRPFQAPRP,-0.127
19,RRIRERPPRLPRPRPRPLYEPRP,-1.24
20,RRIRHRPPRLPRPRPRPDAIPRP,-0.025
21,RRIRNRPPRLPRPRPRPWKTPRP,0.0489
22,RRIRSRPPRLPRPRPRPCMAPRP,-0.182

row,Sequence,shrunken log2 fold change
1,RRIRSRPPRLPRPRPRPRWPPRP,0.553
2,RRIRPRPPRLPRPRPRPRDQPRP,0.0809
3,RRIRRRPPRLPRPRPRPWLFPRP,0.383
4,RRIRGRPPRLPRPRPRPEFDPRP,1.8
5,RRIRERPPRLPRPRPRPQGRPRP,-0.0137
6,RRIRWRPPRLPRPRPRPKNAPRP,0.202
7,RRIRNRPPRLPRPRPRPFDRPRP,0.0368
8,RRIRWRPPRLPRPRPRPFGYPRP,-0.0944
9,RRIRNRPPRLPRPRPRPPITPRP,0.187
10,RRIRDRPPRLPRPRPRPHRNPRP,-0.0138
11,RRIRGRPPRLPRPRPRPGAHPRP,0.755
12,RRIRLRPPRLPRPRPRPYLAPRP,-0.756
13,RRIRFRPPRLPRPRPRPSILPRP,-0.442
14,RRIRRRPPRLPRPRPRPKDWPRP,0.36
15,RRIRMRPPRLPRPRPRPSSDPRP,0.111
16,RRIRPRPPRLPRPRPRPGVWPRP,0.54
17,RRIRARPPRLPRPRPRPWAIPRP,0.253
18,RRIRRRPPRLPRPRPRPQDEPRP,-0.0204
19,RRIRHRPPRLPRPRPRPLHRPRP,-0.158
20,RRIRARPPRLPRPRPRPHKRPRP,0.157
21,RRIRGRPPRLPRPRPRPVYWPRP,1.38
